# Measured values as given in the supplement of paper PMC10126150.
# ± gives the standard deviation of the averaged measurements.
# Test system: ATP
# Assay: switch fluorescence ratio, 500 uM ATP over buffer (Cy3 cluster intensity, sum of 5 cycles each) (fold (ratio)); higher = stronger signal-on switching upon ATP binding; sequences stand for … in TCGTCGGCAGCGTCAGATGTGTATAAGAGACAGTTTTTTTTTTTTTTTTTTTTTTTTT…TC
# Conditions: aptamer strand: ATP DNA aptamer (quencher-CACCTGGGGGAGTATTGCGGAGGAAGG + anchor), 100 nM annealed; ATP concentration: 500 uM
# Procedure, shortened: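 Imaging in selection buffer was followed by imaging after 15 min with 500 uM ATP at 22 °C, for Cy3-labelled switching-strand clusters annealed to 100 nM quencher-labelled ATP aptamer on a modified Illumina MiSeq flow-cell. Five of these buffer/ATP cycles ran, separated by NaOH stripping and re-annealing. The fluorescence ratio per cluster is summed target-cycle over summed buffer-cycle Cy3 intensity, averaged per switch-domain sequence; clusters outside 100-1000 RFU were removed.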
# 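Also: ATP exposure 15 min at 22 °C before imaging.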
row,Sequence,switch fluorescence ratio
1,CGTGTTTTAG,1 ± 0.033
2,CGTTAATCTT,0.995 ± 0.049
3,CGTTAATTAC,1.38 ± 0.036
4,CGTTAGAATC,1.014 ± 0.0082
5,CGTTAGATGG,1.01 ± 0.011
6,CGTTAGTGCG,1 ± 0.025
7,CGTTCAACTC,1.04 ± 0.016
8,CGTTCTGTTT,1 ± 0.029
9,CGTTGAGGAA,0.9853 ± 0.0038
10,CGTTGCCGTT,1.06 ± 0.1
11,CGTTGCGCTG,1.01 ± 0.0069
12,CGTTGGCACG,0.997 ± 0.04
13,CGTTGGGTCC,0.987 ± 0.029
14,CGTTGGGTTT,1.03 ± 0.054
15,CGTTGGTCAG,1.02 ± 0.032
16,CGTTGGTGGT,0.99 ± 0.031
17,CGTTGTACTT,1.01 ± 0.052
18,CGTTGTAGGA,0.999 ± 0.016
19,CGTTGTAGGG,0.989 ± 0.01
20,CGTTGTCATC,1.01 ± 0.06
21,CGTTGTCATT,0.972 ± 0.036
22,CGTTGTCTAG,0.9713 ± 0.005
23,CGTTGTTAGC,0.992 ± 0.022
24,CGTTGTTGTT,0.989 ± 0.045
25,CGTTTAAGTA,0.973 ± 0.019

row,Sequence,switch fluorescence ratio
1,CGTTTACTTA,1.02 ± 0.02
2,CGTTTAGGTT,1 ± 0.017
3,CGTTTCAGCG,0.952 ± 0.051
4,CGTTTCGTGC,0.9919 ± 0.003
5,CGTTTGGACG,0.989 ± 0.079
6,CGTTTGGGGG,0.987 ± 0.021
7,CGTTTGGTCT,1 ± 0.051
8,CGTTTGGTGG,1.01 ± 0.032
9,CGTTTGTGAG,1 ± 0.0092
10,CGTTTGTGGG,0.984 ± 0.034
11,CGTTTTAGAG,1.01 ± 0.016
12,CGTTTTCCGA,1.01 ± 0.032
13,CGTTTTCGGA,0.982 ± 0.032
14,CGTTTTGATA,1.01 ± 0.012
15,CGTTTTGATT,0.997 ± 0.013
16,CGTTTTGGGC,1.04 ± 0.033
17,CGTTTTGGGG,0.999 ± 0.032
18,CGTTTTTCCG,1.08 ± 0.032
19,CGTTTTTGGC,0.992 ± 0.074
20,CTAAAAGGGA,0.95 ± 0.033
21,CTAAAAGTGT,0.989 ± 0.034
22,CTAAACAGAA,0.9996 ± 0.0027
23,CTAAACGGTG,1.03 ± 0.012
24,CTAAAGACTC,1.19 ± 0.046
25,CTAAAGGGGA,1.08 ± 0.12

row,Sequence,switch fluorescence ratio
1,CTAAAGGGGG,0.998 ± 0.029
2,CTAAATAGGG,1.01 ± 0.049
3,CTAAATCGGT,0.987 ± 0.061
4,CTAAATGGGA,1.01 ± 0.029
5,CTAAATTAGT,0.995 ± 0.042
6,CTAAATTGCC,0.9991 ± 0.0056
7,CTAACATTTT,1.01 ± 0.018
8,CTAACCAGCC,1.6 ± 0.13
9,CTAACCGGTA,1.006 ± 0.0063
10,CTAACTGGTG,1.2 ± 0.055
11,CTAAGAGGAC,0.9921 ± 0.0033
12,CTAAGAGGCG,0.988 ± 0.024
13,CTAAGCGGGA,1.05 ± 0.016
14,CTAAGGATGC,1.03 ± 0.021
15,CTAAGGCGGG,1.013 ± 0.0072
16,CTAAGGGGAT,1.09 ± 0.15
17,CTAAGTTCCG,1.015 ± 0.01
18,CTAATATTAT,1.01 ± 0.027
19,CTAATCGGTT,0.97 ± 0.029
20,CTAATTAAGT,0.973 ± 0.028
21,CTAATTATGG,1.04 ± 0.014
22,CTAATTGAGT,1.01 ± 0.014
23,CTAATTTTTT,1.01 ± 0.025
24,CTACCTCCGA,3.16 ± 0.29
25,CTACTATAGG,0.9889 ± 0.0064

row,Sequence,switch fluorescence ratio
1,CTAGAAAGC,1.02 ± 0.02
2,CTAGCAACGC,1.08 ± 0.028
3,CTAGCCAATT,1.02 ± 0.016
4,CTAGCCCAGC,1.02 ± 0.026
5,CTAGCCGGGA,1.017 ± 0.009
6,CTAGCCTCTT,0.995 ± 0.027
7,CTAGCCTGCT,0.994 ± 0.038
8,CTAGGACAGC,0.994 ± 0.012
9,CTAGGCAGTT,1.01 ± 0.012
10,CTAGGCTGTA,1 ± 0.021
11,CTAGGGAGGT,0.9701 ± 0.002
12,CTAGGGCTTC,0.979 ± 0.02
13,CTAGGGGCGT,0.979 ± 0.019
14,CTAGGGGGGC,1 ± 0.093
15,CTAGGTGGAC,1.01 ± 0.012
16,CTAGTAGATC,1.04 ± 0.014
17,CTAGTAGTGT,1.01 ± 0.022
18,CTAGTCGCCG,1.003 ± 0.0097
19,CTAGTCTAAT,1.01 ± 0.039
20,CTAGTGCTCG,0.971 ± 0.022
21,CTAGTTAAGC,0.9892 ± 0.0035
22,CTAGTTCTTA,1.05 ± 0.065
23,CTAGTTGGTT,0.971 ± 0.028
24,CTATAAAAGT,0.9983 ± 0.0076
25,CTATAAGGG,0.985 ± 0.031

row,Sequence,switch fluorescence ratio
1,CTATAGGAAA,1.03 ± 0.026
2,CTATAGGTAA,0.996 ± 0.019
3,CTATAGTAGG,0.9849 ± 0.0029
4,CTATAGTCAA,1.38 ± 0.026
5,CTATATGAAG,0.9802 ± 0.0067
6,CTATCCTCTT,0.972 ± 0.01
7,CTATCGGGGT,0.993 ± 0.015
8,CTATCGGTGA,0.9767 ± 0.0019
9,CTATGAATTT,0.995 ± 0.011
10,CTATGACAGC,1.01 ± 0.016
11,CTATGATCTG,0.989 ± 0.065
12,CTATGGCCGG,0.969 ± 0.024
13,CTATGGCGCA,1.03 ± 0.067
14,CTATGGGGGG,0.993 ± 0.035
15,CTATGGTATC,1.02 ± 0.015
16,CTATGTGGTG,1.02 ± 0.054
17,CTATTAATAC,1.63 ± 0.096
18,CTATTAGGGA,0.9728 ± 0.0092
19,CTATTCAGGG,1.02 ± 0.066
20,CTATTCGTGG,0.973 ± 0.029
21,CTATTGGCAA,1.06 ± 0.022
22,CTATTGGGCT,1.01 ± 0.012
23,CTATTTAGCC,1.02 ± 0.063
24,CTATTTCTGA,0.931 ± 0.027
25,CTATTTTGAT,0.979 ± 0.024

row,Sequence,switch fluorescence ratio
1,CTATTTTTAG,0.9968 ± 0.0021
2,CTCAGCGGGT,1.49 ± 0.68
3,CTCAGGATGT,1.06 ± 0.026
4,CTCAGTTTTA,1.002 ± 0.0083
5,CTCATATGCA,1 ± 0.029
6,CTCATATTTA,1.01 ± 0.019
7,CTCATTGGGC,0.991 ± 0.027
8,CTCATTTGAC,1.032 ± 0.0056
9,CTCCAGAGGG,2.47 ± 1.8
10,CTCCATTGAT,1.01 ± 0.042
11,CTCGAGAAGA,1.01 ± 0.022
12,CTCGATGGGA,0.974 ± 0.061
13,CTCGATTGTA,0.999 ± 0.048
14,CTCGGCCACT,2.26 ± 1.6
15,CTCGGGGGTA,0.963 ± 0.031
16,CTCGGTTTGG,1.01 ± 0.028
17,CTCGTCTGAG,1 ± 0.023
18,CTCGTTTAGA,1.022 ± 0.0084
19,CTCTCTTTGA,0.963 ± 0.015
20,CTCTGACGGC,1.12 ± 0.12
21,CTCTGATGGG,0.986 ± 0.021
22,CTCTGGCGTT,1.51 ± 0.66
23,CTCTTAGGAT,1.02 ± 0.023
24,CTCTTGGGAA,0.992 ± 0.014
25,CTCTTGGGGC,0.987 ± 0.041

row,Sequence,switch fluorescence ratio
1,CTCTTGGGGT,0.997 ± 0.021
2,CTCTTTTGGT,0.975 ± 0.02
3,CTGAAAACTA,1.02 ± 0.059
4,CTGAAATGGT,0.9928 ± 0.0041
5,CTGAATTAGG,0.988 ± 0.02
6,CTGACGGTAG,1.03 ± 0.022
7,CTGACGTTTT,1.18 ± 0.2
8,CTGACTCGGT,1.12 ± 0.013
9,CTGACTTACG,1.11 ± 0.016
10,CTGACTTCAT,1.0521 ± 0.00045
11,CTGAGAGACA,0.991 ± 0.04
12,CTGAGAGATG,0.9914 ± 0.0072
13,CTGAGCTGCA,1.12 ± 0.036
14,CTGAGGAGGA,1.031 ± 0.0076
15,CTGAGGGCG,1.045 ± 0.0058
16,CTGAGGGGGC,1.02 ± 0.016
17,CTGAGGTATG,1.023 ± 0.0057
18,CTGATAAGCG,0.991 ± 0.039
19,CTGATATGTA,0.969 ± 0.045
20,CTGATATTGT,0.9844 ± 0.0066
21,CTGATGAGTT,0.982 ± 0.019
22,CTGATTCCTG,1.01 ± 0.04
23,CTGCAGCGTC,1.29 ± 0.053
24,CTGCGAATAA,1.4 ± 0.098
25,CTGCGGCTGT,1.02 ± 0.0053

row,Sequence,switch fluorescence ratio
1,CTGCGGGTGC,1.31 ± 0.2
2,CTGCGGTGGG,1.006 ± 0.0051
3,CTGCGTCGTT,0.9967 ± 0.004
4,CTGCTCACAC,1.22 ± 0.046
5,CTGCTTTGTC,0.941 ± 0.0058
6,CTGGACCTTC,1.66 ± 0.043
7,CTGGAGGGA,1 ± 0.07
8,CTGGAGGGAC,1.06 ± 0.026
9,CTGGAGTCTG,1.11 ± 0.086
10,CTGGATTGGG,0.98 ± 0.028
11,CTGGCAGGAA,1.01 ± 0.051
12,CTGGCTGGTT,1.01 ± 0.013
13,CTGGGAAGGC,1.13 ± 0.04
14,CTGGGACCAG,1.019 ± 0.007
15,CTGGGACGAT,0.998 ± 0.03
16,CTGGGAGAAT,1 ± 0.024
17,CTGGGAGGCA,0.9871 ± 0.0098
18,CTGGGCCGGT,1.02 ± 0.063
19,CTGGGCTTAG,0.982 ± 0.037
20,CTGGGGAAAA,1.57 ± 0.94
21,CTGGGGCCTA,0.982 ± 0.023
22,CTGGGGGCAG,1.036 ± 0.0073
23,CTGGGGGCTC,1.01 ± 0.018
24,CTGGGGGTGT,1.05 ± 0.04
25,CTGGGGTAGT,1.03 ± 0.022
